Source: IntAct's records for PubMed 9418902

B1: Tumor necrosis factor receptor superfamily member 4 (Mus musculus), P47741 (parent)
chain: MYVWVQQPTALLLLALTLGVTARRLNCVKHTYPSGHKCCRECQPGHGMVSRCDHTRDTLCHPCETGFYNEAVNYDTCKQCTQCNHRSGSELKQNCTPTQDTVCRCRPGTQPRQDSGYKLGVDCVPCPPGHFSPGNNQACKPWTNCTLSGKQTRHPASDSLDAVCEDRSLLATLLWETQRPTFRPTTVQSTTVWPRTSELPSPPTLVTPEGPAFAVLLGLGLGLLAPLTVLLALYLLRKAWRLPNTPKPCWGNSFRTPIQEEHTDAHFTLAKI
partner: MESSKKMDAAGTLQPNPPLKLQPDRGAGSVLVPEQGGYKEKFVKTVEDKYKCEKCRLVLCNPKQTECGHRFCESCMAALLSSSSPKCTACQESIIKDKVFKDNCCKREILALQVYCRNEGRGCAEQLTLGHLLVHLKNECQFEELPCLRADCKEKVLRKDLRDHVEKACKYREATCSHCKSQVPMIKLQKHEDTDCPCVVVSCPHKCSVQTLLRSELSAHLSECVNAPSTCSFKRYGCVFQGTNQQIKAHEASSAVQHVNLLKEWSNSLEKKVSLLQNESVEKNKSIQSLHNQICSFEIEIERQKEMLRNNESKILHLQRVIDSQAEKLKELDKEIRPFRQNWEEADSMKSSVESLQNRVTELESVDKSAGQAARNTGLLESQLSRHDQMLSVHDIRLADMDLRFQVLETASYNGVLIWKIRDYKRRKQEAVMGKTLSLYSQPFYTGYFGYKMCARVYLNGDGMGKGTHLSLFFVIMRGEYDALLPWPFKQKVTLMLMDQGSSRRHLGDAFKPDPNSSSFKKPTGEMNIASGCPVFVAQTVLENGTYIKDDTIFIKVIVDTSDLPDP
B2: Tumor necrosis factor receptor superfamily member 4 (Mus musculus), P47741 (parent)
chain: B1 chain
partner: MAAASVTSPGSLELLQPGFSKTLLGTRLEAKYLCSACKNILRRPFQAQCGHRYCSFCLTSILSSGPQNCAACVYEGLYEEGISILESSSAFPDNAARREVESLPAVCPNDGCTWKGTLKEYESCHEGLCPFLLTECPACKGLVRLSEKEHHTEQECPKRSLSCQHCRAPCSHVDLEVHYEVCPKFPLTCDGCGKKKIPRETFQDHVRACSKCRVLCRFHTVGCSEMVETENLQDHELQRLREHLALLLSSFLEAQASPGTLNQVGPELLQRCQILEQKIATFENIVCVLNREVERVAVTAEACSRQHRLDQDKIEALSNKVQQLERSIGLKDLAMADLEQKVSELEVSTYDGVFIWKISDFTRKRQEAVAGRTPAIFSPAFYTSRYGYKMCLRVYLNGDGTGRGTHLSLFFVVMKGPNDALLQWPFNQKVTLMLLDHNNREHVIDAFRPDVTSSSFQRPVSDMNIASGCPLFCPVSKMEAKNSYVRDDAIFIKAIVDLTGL

Variants of: B1
Details: with traf3_mouse Traf3, Q60803

Variant | effect of a mutation on the interaction
MYVWVQQPTALLLLALTLGVTARRLNCVKHTYPSGHKCCRECQPGHGMVSRCDHTRDTLCHPCETGFYNEAVNYDTCKQCTQCNHRSGSELKQNCTPTQDTVCRCRPGTQPRQDSGYKLGVDCVPCPPGHFSPGNNQACKPWTNCTLSGKQTRHPASDSLDAVCEDRSLLATLLWETQRPTFRPTTVQSTTVWPRTSELPSPPTLVTPEGPAFAVLLGLGLGLLAPLTVLLALYLLRKAWRLPNTPKPCWGNSFRAAAQEEHTDAHFTLAKI [T256A;P257A;I258A] | disrupting interaction strength
MYVWVQQPTALLLLALTLGVTARRLNCVKHTYPSGHKCCRECQPGHGMVSRCDHTRDTLCHPCETGFYNEAVNYDTCKQCTQCNHRSGSELKQNCTPTQDTVCRCRPGTQPRQDSGYKLGVDCVPCPPGHFSPGNNQACKPWTNCTLSGKQTRHPASDSLDAVCEDRSLLATLLWETQRPTFRPTTVQSTTVWPRTSELPSPPTLVTPEGPAFAVLLGLGLGLLAPLTVLLALYLLRKAWRLPNTPKPCWGNSFRTPIAAAHTDAHFTLAKI [Q259A;E260A;E261A] | disrupting interaction strength
MYVWVQQPTALLLLALTLGVTARRLNCVKHTYPSGHKCCRECQPGHGMVSRCDHTRDTLCHPCETGFYNEAVNYDTCKQCTQCNHRSGSELKQNCTPTQDTVCRCRPGTQPRQDSGYKLGVDCVPCPPGHFSPGNNQACKPWTNCTLSGKQTRHPASDSLDAVCEDRSLLATLLWETQRPTFRPTTVQSTTVWPRTSELPSPPTLVTPEGPAFAVLLGLGLGLLAPLTVLLALYLLRKAWRLPNTPKPCWGNSFRTPIQEEAAAAHFTLAKI [H262A;T263A;D264A] | decreasing interaction strength

Variants of: B2
Details: with traf2_mouse Traf2, P39429

Variant | effect of a mutation on the interaction
MYVWVQQPTALLLLALTLGVTARRLNCVKHTYPSGHKCCRECQPGHGMVSRCDHTRDTLCHPCETGFYNEAVNYDTCKQCTQCNHRSGSELKQNCTPTQDTVCRCRPGTQPRQDSGYKLGVDCVPCPPGHFSPGNNQACKPWTNCTLSGKQTRHPASDSLDAVCEDRSLLATLLWETQRPTFRPTTVQSTTVWPRTSELPSPPTLVTPEGPAFAVLLGLGLGLLAPLTVLLALYLLRKAWRLPNTPKPCWGNSFRTPIAAAHTDAHFTLAKI [Q259A;E260A;E261A] | disrupting interaction strength
MYVWVQQPTALLLLALTLGVTARRLNCVKHTYPSGHKCCRECQPGHGMVSRCDHTRDTLCHPCETGFYNEAVNYDTCKQCTQCNHRSGSELKQNCTPTQDTVCRCRPGTQPRQDSGYKLGVDCVPCPPGHFSPGNNQACKPWTNCTLSGKQTRHPASDSLDAVCEDRSLLATLLWETQRPTFRPTTVQSTTVWPRTSELPSPPTLVTPEGPAFAVLLGLGLGLLAPLTVLLALYLLRKAWRLPNTPKPCWGNSFRAAAQEEHTDAHFTLAKI [T256A;P257A;I258A] | disrupting interaction strength
MYVWVQQPTALLLLALTLGVTARRLNCVKHTYPSGHKCCRECQPGHGMVSRCDHTRDTLCHPCETGFYNEAVNYDTCKQCTQCNHRSGSELKQNCTPTQDTVCRCRPGTQPRQDSGYKLGVDCVPCPPGHFSPGNNQACKPWTNCTLSGKQTRHPASDSLDAVCEDRSLLATLLWETQRPTFRPTTVQSTTVWPRTSELPSPPTLVTPEGPAFAVLLGLGLGLLAPLTVLLALYLLRKAWRLPNTPKPCWGNSFRTPIQEEAAAAHFTLAKI [H262A;T263A;D264A] | decreasing interaction strength
